Test results taken from US20210002619.

How the values were obtained:
[1] = tested on: T1, Transactivation domain of FoxM1 (FoxM1 (526-748))
T1 sequence: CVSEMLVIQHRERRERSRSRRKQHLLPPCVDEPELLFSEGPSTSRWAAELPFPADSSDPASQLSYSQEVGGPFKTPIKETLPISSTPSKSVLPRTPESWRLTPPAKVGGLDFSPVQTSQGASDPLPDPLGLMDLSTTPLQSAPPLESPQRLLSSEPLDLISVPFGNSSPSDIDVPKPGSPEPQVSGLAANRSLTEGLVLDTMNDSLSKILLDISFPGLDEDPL

[2] = tested on: T2, C-terminal domain of the retinoblastoma protein (Rb (771-928))
T2 sequence: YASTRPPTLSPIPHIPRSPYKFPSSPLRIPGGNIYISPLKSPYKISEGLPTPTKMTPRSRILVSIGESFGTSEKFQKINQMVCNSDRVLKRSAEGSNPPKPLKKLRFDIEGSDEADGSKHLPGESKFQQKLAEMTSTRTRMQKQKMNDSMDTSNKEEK

Sequence of Full-length histone H1 (chain, as listed by the source): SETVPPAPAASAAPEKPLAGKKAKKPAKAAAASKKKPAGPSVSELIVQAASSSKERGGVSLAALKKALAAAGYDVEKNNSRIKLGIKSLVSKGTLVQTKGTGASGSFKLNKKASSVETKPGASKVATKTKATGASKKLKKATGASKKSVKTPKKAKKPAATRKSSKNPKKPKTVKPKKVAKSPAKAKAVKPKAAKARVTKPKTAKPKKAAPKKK

| Substance | phosphorylation activity (32P-ATP labeling of substrate) (Full-length histone H1) | phosphorylation activity (32P-ATP labeling of substrate) [1] | phosphorylation activity (32P-ATP labeling of substrate) [2] |
| --- | --- | --- | --- |
| Wild-type p27-Cdk4-CycD1 trimeric complex (v) with phosphorylated p27 (wild-type Cdk4) | had phosphorylation activity toward all substrates | had phosphorylation activity toward all substrates | had phosphorylation activity toward all substrates |
| Wild-type p27-Cdk4-CycD1 trimeric complex (vi) with phosphorylated p27 (Cdk4 variant having T172E substitution) | had phosphorylation activity toward all substrates | had phosphorylation activity toward all substrates | had phosphorylation activity toward all substrates |
